Assay results reported in patent US20260109761A1 (IP2IPO INNOVATIONS, published 2026).

Key:
[1] = target: T1, HEL19 37-55 SEQ ID No: 244; assay: peptide-array ELISA on mimics of the human ZIP12 ECD (peroxidase conjugate, ABTS, CCD read-out); antibody concentration of this value not given
T1 construct: alpha-helical mimic
T1 peptide: CRGSCGQPADLLQVLSAGD
Method: (§1) The binding of antibody to each of the synthesized peptides was tested in a peptide-based ELISA. The peptide arrays were incubated with primary antibody solution (overnight at 4° C.). After washing, the peptide arrays were incubated with a 1/1000 dilution of an appropriate antibody peroxidase conjugate for one hour at 25° C. After washing, the peroxidase substrate 2,2′-azino-di-3-ethylbenzthiazoline sulfonate (ABTS) and […] of 3 percent H2O2 were added. After one hour, the colour development was measured. The colour development was quantified with a charge coupled device—camera and an image processing system.

[2] = target: T2, LIN15 37-51 SEQ ID No: 226; assay: as above
T2 peptide: RGSSGQPADLLQVLS
Method: as §1

[3] = target: T3, HEL19 38-56 SEQ ID No: 245; assay: as above
T3 construct: alpha-helical mimic
T3 peptide: CGSSCQPADLLQVLSAGDH
Method: as §1

[4] = target: T4, LIN15 36-50 SEQ ID No: 225; assay: as above
T4 peptide: SRGSSGQPADLLQVL
Method: as §1

[5] = target: T5, LIN15 34-48 SEQ ID No: 223; assay: as above
T5 peptide: SRSRGSSGQPADLLQ
Method: as §1

[6] = target: T6, BETA22 31-52 SEQ ID No: 248 (not fully specified); assay: as above
T6 construct: beta-turn mimic
T6 peptide: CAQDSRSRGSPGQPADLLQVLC
Method: as §1

[7] = target: T7, LOOP15 35-49 SEQ ID No: 238; assay: as above
T7 construct: constrained mimic
T7 peptide: CRSRGSSGQPADLLC
Method: as §1

[8] = target: T8, BETA22 32-53 SEQ ID No: 249 (not fully specified); assay: as above
T8 construct: beta-turn mimic
T8 peptide: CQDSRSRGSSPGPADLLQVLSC
Method: as §1

[9] = target: T9, HEL19 33-51 SEQ ID No: 243; assay: as above
T9 construct: alpha-helical mimic
T9 peptide: CDSRCRGSSGQPADLLQVL
Method: as §1

[10] = target: T10, LOOP15 36-50 SEQ ID No: 239; assay: as above
T10 construct: constrained mimic
T10 peptide: CSRGSSGQPADLLQC
Method: as §1

[11] = target: T11, LOOP15 37-51 SEQ ID No: 240; assay: as above
T11 construct: constrained mimic
T11 peptide: CRGSSGQPADLLQVC
Method: as §1

[12] = target: T12, HEL19 32-50 SEQ ID No: 242; assay: as above
T12 construct: alpha-helical mimic
T12 peptide: CQDSCSRGSSGQPADLLQV
Method: as §1

[13] = target: T13, LIN15 35-49 SEQ ID No: 224; assay: as above
T13 peptide: RSRGSSGQPADLLQV
Method: as §1

[14] = target: T14, HEL19 31-49 SEQ ID No: 241; assay: as above
T14 construct: alpha-helical mimic
T14 peptide: CAQDCRSRGSSGQPADLLQ
Method: as §1

[15] = target: T15, cynomolgus monkey ZIP12-ECD-GST (cynomolgus monkey, UniProt Q95KA5 24-207); assay: SPR single cycle kinetics, mAb captured on protein A, ZIP12-ECD-GST injected; cynomolgus monkey ZIP12-ECD-GST; Example 8 cross-species SCK (FIG. 12 average)
T15 construct: extracellular domain; also called cyno ZIP12 fusion protein; cynomolgus monkey ZIP12-GST-ECD; not shown: glutathione S-transferase (GST) tag
Source text: Surface plasmon resonance (SPR) is a label free biophysical technique that allows the direct measurement of biomolecular interactions. A single cycle kinetics (SCK) SPR direct binding assay was developed to characterise antibody binding to human, cyno, pig and canine ZIP12 fusion proteins. This assay was used to characterise the binding kinetics of the monoclonal antibody, 51B12 W99H_L1 against each of the four proteins (defined by kon, koff, KD). Single Cycle Kinetics (SCK) involves first capturing the mAb onto the protein A sensor surface and then sequentially injecting a series of concentrations of ZIP12-ECD-GST over the surface starting at the lowest concentration and ending with the highest concentration. The final concentration is followed by a dissociation phase where buffer only is passed across the surface followed by regeneration, where the remaining bound huZIP12-ECD-GST is removed from the surface by injection of a 10 mM Glycine pH 1.5 and 50 mM NaOH solution. The SCK is repeated for each monoclonal antibody providing duplicate data and the kinetics of each interaction is evaluated by the Biacore software.

T15 sequence (Q95KA5 24-207): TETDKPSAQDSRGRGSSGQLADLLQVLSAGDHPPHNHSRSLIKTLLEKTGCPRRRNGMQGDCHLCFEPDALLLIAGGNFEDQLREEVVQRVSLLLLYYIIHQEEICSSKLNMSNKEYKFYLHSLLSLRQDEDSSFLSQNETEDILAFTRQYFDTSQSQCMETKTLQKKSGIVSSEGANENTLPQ

- value [1]: 2760
- value [2]: 2570
- value [3]: 828
- value [4]: 2650
- value [5]: 1650
- value [6]: 2440
- value [7]: 901
- value [8]: 1350
- value [9]: 2610
- value [10]: 976
- value [11]: 1830
- value [12]: 2140
- value [13]: 2460
- value [14]: 1700
- Kd [15]: 6.31 nM
B1: H3_W99H_L1 (antibody, V domains shown)
VH: QVQLVESGGGVVQPGRSLRLSCAASGFTFSDYGMHWVRQAPGKGLEWVAYISSGGTTIYYADTVKGRFTISRDNSKNTLYLQMNSLRAEDTAVYYCARHTNLYAMDYWGQGTTVTVSS
VL: DIVLTQSPDSLAVSLGERATINCRASKSVSTQGYSYMHWYQQKPGQPPKFLIYLASNLESGVPDRFSGSGSGTDFTLTISSLQAEDVAVYYCQHSREVPYTFGGGTKVEIKR
notes: Fc null human IgG1 / human kappa
